These results are taken from patent US20190119696A1 (YEDA RESEARCH AND DEVELOPMENT, published 2019).

The target in this assay is T1, APS1 (small subunit of ADP-glucose pyrophosphorylase, AGPase; AT5G48300), endogenous in Arabidopsis plants (Arabidopsis thaliana, UniProt P55228 72-520, limits assumed).
T1 construct: Endogenous plant protein
T1 sequence (looked up): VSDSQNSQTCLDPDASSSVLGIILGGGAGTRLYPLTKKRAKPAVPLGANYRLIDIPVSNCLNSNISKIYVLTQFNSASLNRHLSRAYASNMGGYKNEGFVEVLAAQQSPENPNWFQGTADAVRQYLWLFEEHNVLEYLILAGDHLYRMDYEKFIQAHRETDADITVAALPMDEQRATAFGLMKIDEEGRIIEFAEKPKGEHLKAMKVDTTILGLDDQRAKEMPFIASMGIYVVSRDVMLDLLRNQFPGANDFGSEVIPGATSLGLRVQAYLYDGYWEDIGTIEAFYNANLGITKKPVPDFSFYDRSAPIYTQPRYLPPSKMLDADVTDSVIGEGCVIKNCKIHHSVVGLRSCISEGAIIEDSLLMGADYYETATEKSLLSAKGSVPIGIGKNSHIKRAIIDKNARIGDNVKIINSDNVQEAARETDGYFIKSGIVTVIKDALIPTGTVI
Description: in planta trapping of intermolecular disulfide reaction intermediates; non-reducing SDS-PAGE, anti-HA immunoblot. Background: Immunoblotting shows a protein as a band on a membrane.

B1: ACHT4ΔC (Arabidopsis ACHT4 lacking the 47-amino acid C-terminus), fused to the HA3 affinity tag (enzyme, not shown: small tags and cut ends)
chain: SSAITAQTTLRIGTAQKWWEKGLKDNMREISSAQELVDSLTNAGDKLVVVDFFSPGCGGCKALHPKICQFAEMNPDVQFLQVNYEEHKSMCYSLGVHVLPFFRFYRGSQGRVCSFSCTNATIKKFRDALAKHGPDRCSLGPTKGLEEKELVALAAN
notes: also called AtACHT4ΔC; AtACHT4-C-Del
For B1, the binding result is given as “no binding”.
